Entries after “also recorded” stand apart in the source; their conditions may differ.
Assays:
[1] = test system: db/db mice; assay: Blood glucose of db/db mice after injection of test substance; assay type: in vivo, mouse; settings: for anti-hyperglycemic effect (blood glucose): peripheral/i.v. injection, db/db, dose not stated; for active duration of anti-hyperglycemic effect in vivo: i.v. injection, hyperglycemic db/db mice
[2] = test system: db/db mice; assay: Serum nesfatin-1 / pladin in db/db after i.v. plasmin inhibitor (HPLC); assay type: in vivo, mouse; settings: 30 minutes after i.v. injection
Protocol: Hypothalamus in acetic acid supplemented with protease inhibitor cocktail tablets (Roche, Indianapolis, Ind.) was homogenized, sonicated and heated at 95° C. for 15 minutes. The samples were then centrifuged at 13,200 rpm at 4° C. for 30 minutes. The supernatants were finally collected as their protein contents were determined by the Bradford assay (Thermo-Fisher Sci. Rockford, Ill.). Mouse serum was freshly prepared by drawing blood through ophthalmectomy. About […] hypothalamic total proteins or 25 μL serum were analyzed with Waters Delta 600E/2487/717 HPLC system using an analytical C18 reverse phase column (4.6×250 mm/5 μm, Hambon, Zhangjiagang, CN). Nesfatin-1 was eluted with a linear gradient from 20%-40% solvent B (solvent A: water with 0.1% trifluoroacetic acid, solvent B: acetonitrile with 0.1% trifluoroacetic acid) for 20 minutes at the flow rate of 1 ml/minute. The purified nesfatin-1 was used as the standard to determine the retention time and plot the standard curve. The fraction collected at the retention time was sent for the mass spectrometry analysis.
Mouse serum was freshly prepared by drawing blood through ophthalmectomy. The sera of plg^−/−lepr^−/− and db/db mice were directly analyzed with Waters Delta 600E/2487/717 HPLC System using a C18 reverse phase column (4.6×250 mm, 5 μm, Hambon, Zhangjiagang, CN) and eluted with a linear gradient from 20%-40% acetonitrile in 0.1% TFA for 20 minutes at the flow rate of 1 ml/minute (Enriori et al., 2007). Compared with db/db mice, the divergent fractions eluted in plg^−/−lepr^−/− mice were collected for the determination of molecular weight using the Applied Biosystems 4800 Proteomics Analyzer (Applied Biosystems). The MS spectra were acquired in the liner mode at a range of peptide mass from 3,000 to 20,000 Dalton.

[3] = test system: db/db mice; assay: Food intake and body weight of db/db mice; assay type: in vivo, mouse; settings: i.v. plasmin inhibitor to db/db (AMCA 15 mg/day once daily for three days)
[4] = test system: db/db mice; assay: Blood glucose of db/db mice after injection of test substance; assay type: in vivo, mouse; settings: for effect of pre-treatment on the anti-diabetic effect of nesfatin-1: GW9662 0.45 μg/g i.v. or Compound C 20 mg/kg i.p. before 100 ug Nesfatin-1 i.v., blood glucose in 6 hours; for effect of pre-injection on the anti-hyperglycemic effect of rPladin: GW9662 0.45 ug/g i.v., rosiglitazone or Compound C 20 ug/g i.p., then 10 nmol rPladin i.v., 3 hours
Protocol: GW9662, a PPAR-gamma irreversible inhibitor, was i.v. injected into the tail vein of db/db mice at the dose of 0.45 μg per gram body weight. After 30 minutes, 100 ug Nesfatin-1 was injected into the tail vein of db/db mice. Blood glucose was measured in 6 hours.
Compound C, a 5′-AMP-activated protein kinase (AMPK) specific inhibitor, was intraperitoneally injected to db/db mice at the dose of 20 mg per kg body weight. Subsequently, 100 ug Nesfatin-1 was injected into the tail vein of db/db mice. Blood glucose was measured in 6 hours.
Without anesthesia, mice were placed into a restricting tube. The testing substance such as nesfatin-1 or rPladin was i.v. injected via mice tail vein with a total volume of 150 μL. After that mice were returned to the cages with food and water available freely. In the i.p. injection experiment, mice without anesthesia were injected with the testing substances directly into the peritoneal with a total volume of 200 μL.
db/db mice of 16 to 18 weeks old were i.v. injected with 0.45 ug/g of GW9662 (Sigma, St. Louis, Mo.), i.p. injected with 20 ug/g rosiglitazone (Sigma, St. Louis, Mo.) or 20 ug/g Compound C (Sigma, St. Louis, Mo.), and then randomly assigned to receive the i.v. injection of 10 nmol rPladin or the same volume of saline as the control. Blood glucose was measured at 3 hours after the injection using the glucose meter (Roche, Indianapolis, Ind.).

[5] = target: plasmin (Homo sapiens, UniProt P00747); assay: Incubation with plasmin in vitro (proteolysis); assay type: biochemical; settings: incubated with plasmin in vitro
Chain of plasmin (P00747 581-810 limits assumed, species assumed): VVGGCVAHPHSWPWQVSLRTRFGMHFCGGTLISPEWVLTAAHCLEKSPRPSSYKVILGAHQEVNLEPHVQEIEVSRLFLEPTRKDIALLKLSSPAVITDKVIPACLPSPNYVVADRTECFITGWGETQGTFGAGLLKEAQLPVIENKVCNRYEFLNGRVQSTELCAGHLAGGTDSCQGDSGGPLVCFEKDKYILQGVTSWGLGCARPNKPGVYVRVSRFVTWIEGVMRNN
Chain of plasmin (P00747 97-580 partner limits assumed, species assumed): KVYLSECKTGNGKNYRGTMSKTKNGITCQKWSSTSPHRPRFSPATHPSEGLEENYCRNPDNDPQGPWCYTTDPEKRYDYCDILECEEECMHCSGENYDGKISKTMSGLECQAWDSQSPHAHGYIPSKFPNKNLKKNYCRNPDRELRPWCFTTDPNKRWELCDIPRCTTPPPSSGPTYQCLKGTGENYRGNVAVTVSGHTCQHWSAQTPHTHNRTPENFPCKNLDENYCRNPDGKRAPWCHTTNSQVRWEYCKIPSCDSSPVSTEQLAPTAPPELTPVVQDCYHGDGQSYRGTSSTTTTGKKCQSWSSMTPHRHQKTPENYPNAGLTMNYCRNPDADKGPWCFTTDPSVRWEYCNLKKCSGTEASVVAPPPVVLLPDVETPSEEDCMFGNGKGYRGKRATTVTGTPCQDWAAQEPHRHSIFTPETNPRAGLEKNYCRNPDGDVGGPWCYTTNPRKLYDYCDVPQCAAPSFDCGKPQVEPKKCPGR
Text: The recovery of hypothalamic nesfatin-1 in plg^−/−lepr^−/− was consistent to its normalization in food intake and body weight. Fasted mice always had less nesfatin-1 in hypothalamus than their freely feeding counterparties (FIG. 2b). Furthermore, plasminogen deficiency provided a unique approach to study the chronic effect of elevated nesfatin-1 in hyperphagic obese animals, which was impossible for the i.c.v. or i.p. administration due to the short half-time of nesfatin-1. Consequently, agrp and npy were found reduced in plg^−/−lepr^−/−, while pomc was elevated compared with plg^+/+lepr^−/− (FIG. 3), contradicting to the previous report that i.c.v. nesfatin-1 didn't alter the expression of pomc, npy and agrp. Consistent to the present finding, the same group reported the up-regulation of pomc by i.p. nesfatin-1 in NTS recently.
Carefully examining the amino acid sequence of pladin (SEQ ID NO: 23), it has several putative cleavage sites by plasmin (FIG. 11A).

For “ADIEEIRSGR LSQELDLVSH (ADIEEIRSGRLSQELDLVSH; A synthetic peptide which was the C-terminal portion of pladin) [SEQ ID NO:22, synthetic 20 amino acids peptide, C-terminal portion of pladin]”, the “anti-hyperglycemic activity, fold less than rPladin” value ([1]; i.v., db/db mice) was “more than 3 fold” and the “anti-hyperglycemic effect (blood glucose)” value [1] was “anti-hyperglycemic”.

With aprotinin the “circulating (serum) nesfatin-1” value [2] was “increased”, the body weight [3] was “reduction” and the food intake [3] was “reduction”.

With “ANAEDIKSGKLSQELDFVSH (amino acids by MALDI-TOF/TOF with Trypsic Peptides) [SEQ ID NO:24, synthetic 20 amino acids peptide, a portion of NUCB1]” the “anti-hyperglycemic effect (blood glucose)” value [1] was “anti-hyperglycemic”.

For c1cc(-c2cnn3cc(-c4ccc(OCCN5CCCCC5)cc4)cnc23)ccn1 [Compound C], the “effect of pre-treatment on the anti-diabetic effect of nesfatin-1” value [4] was “fully inhibited” and the “effect of pre-injection on the anti-hyperglycemic effect of rPladin” value [4] was “abolished; also recorded: prevented”.

For O=C(Nc1ccccc1)c1cc([N+](=O)[O-])ccc1Cl [GW9662], the “effect of pre-treatment on the anti-diabetic effect of nesfatin-1” value [4] was “fully inhibited” and the “effect of pre-injection on the anti-hyperglycemic effect of rPladin” value [4] was “abolished; also recorded: prevented”.

B1: VPVDRAAPPQEDSQATETPDTGLYYHRYLQEVINVLETDGHFREKLQAANAEDIKSGKLSQELDFVSHNVRTKLDELK (protein)
chain: VPVDRAAPPQEDSQATETPDTGLYYHRYLQEVINVLETDGHFREKLQAANAEDIKSGKLSQELDFVSHNVRTKLDELK
modifications: amino acids recombinant peptide of NUCB1
notes: 78 amino acids recombinant peptide, N-terminal portion of NUCB1
B1 was tested, and the “molar anti-hyperglycemic activity, fold higher than rPladin or nesfatin-1” value ([1]; i.v., db/db mice, within 3 hours) was “at least 2 fold”, the “active duration, fold less than rPladin or nesfatin-1” value ([1]; in vivo) was “at least 2 fold” and the “anti-hyperglycemic effect (blood glucose)” value [1] was “anti-hyperglycemic”.

B2: TKVHNTEPVENARIEPPDTGLYYDEYSAAAALETDPHFREKLQKADIEEIRSGRLSQELDLVSHKVR (protein)
chain: TKVHNTEPVENARIEPPDTGLYYDEYSAAAALETDPHFREKLQKADIEEIRSGRLSQELDLVSHKVR
modifications: amino acid sequence of Mutant A91
For B2, the “active duration of anti-hyperglycemic effect in vivo” value (from here on “active duration … in vivo”) [1] was greater than 24 h.

B3: TKVHNTEPVENARIEPPDTGLYYDEYAALETDPHFREKLQKADIEEIRSGRLSQELDLVSHKVR (protein)
chain: TKVHNTEPVENARIEPPDTGLYYDEYAALETDPHFREKLQKADIEEIRSGRLSQELDLVSHKVR
modifications: amino acid sequence of Mutant A92
B3 was tested, and the “active duration … in vivo” value [1] was greater than 12 h.

B4: A4: pladin mutant A4 (Lys28→Ala) (protein)
peptide: TKVHNTEPVENARIEPPDTGLYYDEYLAQVIEVLETDPHFREKLQKADIEEIRSGRLSQELDLVSHKVR
With B4 the proteolysis by plasmin [5] was “resistant to plasmin proteolysis” and the “active duration … in vivo” value [1] was 18 h.

B5: A5: pladin mutant A5 (Lys13→Ala as printed; Arg13 in sequence) (protein)
peptide: TKVHNTEPVENAAIEPPDTGLYYDEYLKQVIEVLETDPHFREKLQKADIEEIRSGRLSQELDLVSHKVR
For B5, the proteolysis by plasmin [5] was “resistant to plasmin proteolysis” and the “active duration … in vivo” value [1] was 12 h.

B6: acetylated rPladin: rPladin acetylated with N-acetylimidazole; three Tyr and three Lys residues modified (protein)
peptide: TKVHNTEPVENARIEPPDTGLYYDEYLKQVIEVLETDPHFREKLQKADIEEIRSGRLSQELDLVSHKVR
modifications: also: three Tyr and three Lys acetylated with N-acetylimidazole
notes: rPladin acetylated with N-acetylimidazole; three Tyr and three Lys residues modified
B6 was tested, and the proteolysis by plasmin [5] was “resistant to the proteolysis by plasmin”, the “active duration … in vivo” value [1] was 12 h and the “anti-hyperglycemic activity compared with reference peptide” value ([1]; i.v., db/db mice) was “unchanged”.

B7: TKVHNTEPVENARIEPPDTGLYYDEYAKAAAAALETDPHFREKLQKADIEEIRSGRLSQELDLVSHKVR (protein)
chain: TKVHNTEPVENARIEPPDTGLYYDEYAKAAAAALETDPHFREKLQKADIEEIRSGRLSQELDLVSHKVR
modifications: amino acid sequence of Mutant A90
In the case of B7, the “active duration … in vivo” value [1] is reported as greater than 24 h.

Source: US8541367B2, “Plasma anti-diabetic NUCB2 peptide (pladin) and uses thereof” (Landing Biotech, Inc., priority 2009, dated 2013)
